One may read the Ki as the dissociation constant of the complex between target and ligand, obtained from inhibition or displacement. Read a high Ki as weaker binding. What is called Kd is the equilibrium constant for the complex coming apart. High values mean weaker binding, low ones tighter binding.

The target in the first experiment is carboxyl-terminal Myc-tagged Ptc-CTD (mouse Ptc with a 140-residue carboxyl-terminal deletion; amino acids 1-1,291) (mouse) (UniProt Q61115). Kind of experiment: competition with 0.9 nM 32P-Shh-N for binding to EcR-293 cells expressing Ptc-CTD, 4 C; KI from IC50.
Sequence of carboxyl-terminal Myc-tagged Ptc-CTD (mouse Ptc with a 140-residue carboxyl-terminal deletion; amino acids 1-1,291) (mouse) (Q61115 1-1291, stated change not applied): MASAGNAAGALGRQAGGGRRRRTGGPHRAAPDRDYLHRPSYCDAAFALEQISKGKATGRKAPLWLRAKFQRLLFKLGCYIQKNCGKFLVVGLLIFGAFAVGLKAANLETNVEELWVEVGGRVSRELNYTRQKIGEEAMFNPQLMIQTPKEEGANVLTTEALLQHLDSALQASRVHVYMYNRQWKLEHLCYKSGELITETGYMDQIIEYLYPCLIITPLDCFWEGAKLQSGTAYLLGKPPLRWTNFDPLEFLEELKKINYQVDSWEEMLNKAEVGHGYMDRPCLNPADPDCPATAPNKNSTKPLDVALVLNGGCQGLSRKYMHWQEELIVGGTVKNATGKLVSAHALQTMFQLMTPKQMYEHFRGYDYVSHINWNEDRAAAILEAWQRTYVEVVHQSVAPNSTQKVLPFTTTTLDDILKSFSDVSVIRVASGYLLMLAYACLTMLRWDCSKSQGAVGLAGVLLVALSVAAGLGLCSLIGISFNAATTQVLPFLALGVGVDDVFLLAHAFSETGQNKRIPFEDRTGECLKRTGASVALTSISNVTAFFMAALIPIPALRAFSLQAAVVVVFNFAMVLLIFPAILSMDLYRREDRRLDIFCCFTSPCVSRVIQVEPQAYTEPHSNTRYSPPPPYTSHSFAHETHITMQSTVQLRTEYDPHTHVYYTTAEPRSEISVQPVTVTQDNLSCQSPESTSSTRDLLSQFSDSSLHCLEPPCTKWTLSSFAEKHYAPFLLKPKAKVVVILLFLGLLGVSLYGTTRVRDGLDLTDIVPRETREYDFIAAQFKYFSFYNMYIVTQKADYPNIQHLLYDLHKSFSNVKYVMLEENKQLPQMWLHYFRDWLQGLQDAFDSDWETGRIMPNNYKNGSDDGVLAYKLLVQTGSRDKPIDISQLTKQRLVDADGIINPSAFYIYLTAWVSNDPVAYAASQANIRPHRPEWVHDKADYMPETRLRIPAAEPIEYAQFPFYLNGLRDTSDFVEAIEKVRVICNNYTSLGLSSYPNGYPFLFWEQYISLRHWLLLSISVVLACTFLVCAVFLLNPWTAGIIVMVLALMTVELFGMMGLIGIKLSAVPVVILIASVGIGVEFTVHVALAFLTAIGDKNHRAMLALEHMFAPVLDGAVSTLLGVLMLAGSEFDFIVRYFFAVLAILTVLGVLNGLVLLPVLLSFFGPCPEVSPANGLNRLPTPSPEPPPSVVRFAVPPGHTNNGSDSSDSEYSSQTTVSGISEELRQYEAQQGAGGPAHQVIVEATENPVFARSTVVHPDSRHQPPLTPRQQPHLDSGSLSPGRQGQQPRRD
“Shh-N SE protein (P42A, K46A) (from UniProt Q62226 25-198) (ligand)” yielded a Ki of 2400 pM.

As to “Shh-N SD altered protein (E90A, D132A, E138A) (from UniProt Q62226 25-198) (ligand)”, the Ki amounted to 840 pM.

“Shh-N SF protein (R154A, S157A) (from UniProt Q62226 25-198) (ligand)”: the Ki worked out at 9100 pM.

“Shh-N SA altered protein (K75A, E76A, Y81A, D105A, N116A, E189A, K195A) (from UniProt Q62226 25-198) (ligand)” registered a Ki of 660 pM.

As to “Shh-N H135A, E177A double mutant (EH) protein (from UniProt Q62226 25-198) (ligand)”, the Ki was 1700 pM.

The substance “Shh-N SC mutant protein (P42A, K46A, R154A, S157A, S178A, K179A) (from UniProt Q62226 25-198) (ligand)” showed a Ki greater than 36000 pM.

As to “Shh-N SB altered protein (N51A, V52A, T56A, E168A) (from UniProt Q62226 25-198) (ligand)”, the Ki is 480 pM.

For the substance “Shh-N E177A (EA) mutant protein (from UniProt Q62226 25-198) (ligand)”, the Ki amounted to 1700 pM.

For the substance “Shh-N H135A (HA) mutant protein (from UniProt Q62226 25-198) (ligand)”, the inhibition constant Ki was 630 pM.

In turn, “Shh-N SG protein (S178A, K179A) (from UniProt Q62226 25-198) (ligand)” showed a Ki of 4300 pM.

The target is the same in another experiment. Briefly: Scatchard analysis of the high-affinity component of 32P-Shh-N binding to EcR-293 cells expressing Ptc-CTD, 4 C.
“32P-labeled Shh-N protein with a protein kinase A site tag (RRASV) at the carboxy terminus (from UniProt Q62226 25-198) (ligand)” showed a Kd of 480 pM.

The target is the same in another experiment. Briefly: binding of 32P-Shh-N to EcR-293 cells expressing Ptc-CTD without competitor.
For the substance “32P-labeled Shh-N protein with a protein kinase A site tag (RRASV) at the carboxy terminus (from UniProt Q62226 25-198) (ligand)”, the percent of input bound in the absence of competitor was 35 % of input.

The next experiment shares this target. Briefly: Table 1 'Ptc-CTD affinity'; for wild type the dissociation constant (KL), as from the Scatchard analysis of 32P-Shh-N on EcR-293 cells expressing Ptc-CTD.
Regarding “wild-type Sonic hedgehog amino-terminal signaling domain protein (Shh-N), aa 25-198 (from UniProt Q62226 25-198) (ligand)”, the Kd is 480 pM.

The values above are taken from US6942988.
